Assay results: paper PMC10883267 (2023)

B1: mouse eIF4E1B (63-244) [mouse] / eIF4E-binding motif of human eIF4G (608-647) [human] (parent complex)
chain 1: KLHPLQYRWVLWFFKNDRSRAWQDNLQLVTKFNTVEDFWAVYSHIKLASKLSSGCDYALFKEGILPMWEDNRNKQGGRWLLSIDKQLRHFELDRLWLETLLCLVGNCFEEYSREVCGAVVNIRTKRDKIALWTSEAEDKAGVMQIGQIYKERLGISTKTIIGYQAHADTAAKSNNLANKFVV
chain 2: EKKRYDREFLLGFQFIFASMQKPEGLPHISDVVLDKANKT
B2: mouse eIF4E1B (63-244) [mouse] / eIF4E-binding motif of human eIF4EBP1 (50-83) [human] (parent complex)
chain 1: B1 chain 1
chain 2: TRIIYDRKFLMECRNSPVTKTPPRDLPTIPGVTS
B3: mouse eIF4E1B (63-244) [mouse] / eIF4E-binding motif of human eIF4ENIF1 (27-63) [human] (parent complex)
chain 1: B1 chain 1
chain 2: PHRYTKEELLDIKELPHSKQRPSCLSEKYDSDGVWDP

Variants of: B1
Assay: pulldown with E. coli lysates, quantified; n = 3 independent experiments; parent: 0.3; read off a plot

screen value	Variant
~0.22 rel. to Mm eIF4E	chain 1 KLHPLQYRWVLWFFKNDRSRAWQDNLQLVTKFNTVEDFWAVYSHIKLASNLMSGCDYALFKEGILPMWEDERNKQGGRWLLSIDKQLRRFELDRLWLETLLCLVGNCFEEYSREVCGAVVNIRTKRDKIALWTSEAEDKAGVMQIGQIYKERLGISTKTIIGYQAHADTAAKSNNLANKFVV
~0.22 rel. to Mm eIF4E	chain 1 KLHPLQYRWVLWFFKNDRSRAWQDNLQLVTKFNTVEDFWAVYSHIKLASNLSSGCDYALFKEGILPMWEDNRNKQGGRWLLSIDKQLRHFELDRLWLETLLCLVGNCFEEYSREVCGAVVNIRTKRDKIALWTSEAEDKAGVMQIGQIYKERLGISTKTIIGYQAHADTAAKSNNLANKFVV
~0.13 rel. to Mm eIF4E	chain 1 KLHPLQYRWVLWFFKNDRSRAWQDNLQLVTKFNTVEDFWAVYSHIELASKLSSGCDYALFKEGILPMWEDNRNKQGGRWLLSIDKQLRHFELDRLWLETLLCLVGNCFEEYSREVCGAVVNIRTKRDKIALWTSEAEDKAGVMQIGQIYKERLGISTKTIIGYQAHADTAAKSNNLANKFVV

Variants of: B2
Assay: pulldown with E. coli lysates, quantified; n = 3 independent experiments; parent: 0.9; read off a plot

screen value	Variant
~0.7 rel. to Mm eIF4E	chain 1 KLHPLQYRWVLWFFKNDRSRAWQDNLQLVTKFNTVEDFWAVYSHIKLASNLMSGCDYALFKEGILPMWEDERNKQGGRWLLSIDKQLRRFELDRLWLETLLCLVGNCFEEYSREVCGAVVNIRTKRDKIALWTSEAEDKAGVMQIGQIYKERLGISTKTIIGYQAHADTAAKSNNLANKFVV
~0.68 rel. to Mm eIF4E	chain 1 KLHPLQYRWVLWFFKNDRSRAWQDNLQLVTKFNTVEDFWAVYSHIKLASNLSSGCDYALFKEGILPMWEDNRNKQGGRWLLSIDKQLRHFELDRLWLETLLCLVGNCFEEYSREVCGAVVNIRTKRDKIALWTSEAEDKAGVMQIGQIYKERLGISTKTIIGYQAHADTAAKSNNLANKFVV
~0.85 rel. to Mm eIF4E	chain 1 KLHPLQYRWVLWFFKNDRSRAWQDNLQLVTKFNTVEDFWAVYSHIELASKLSSGCDYALFKEGILPMWEDNRNKQGGRWLLSIDKQLRHFELDRLWLETLLCLVGNCFEEYSREVCGAVVNIRTKRDKIALWTSEAEDKAGVMQIGQIYKERLGISTKTIIGYQAHADTAAKSNNLANKFVV

Variants of: B3
Assay: pulldown with E. coli lysates, quantified; n = 3 independent experiments; parent: 2.5; read off a plot

screen value	Variant
~1.4 rel. to Mm eIF4E	chain 1 KLHPLQYRWVLWFFKNDRSRAWQDNLQLVTKFNTVEDFWAVYSHIKLASNLMSGCDYALFKEGILPMWEDERNKQGGRWLLSIDKQLRRFELDRLWLETLLCLVGNCFEEYSREVCGAVVNIRTKRDKIALWTSEAEDKAGVMQIGQIYKERLGISTKTIIGYQAHADTAAKSNNLANKFVV
~1.6 rel. to Mm eIF4E	chain 1 KLHPLQYRWVLWFFKNDRSRAWQDNLQLVTKFNTVEDFWAVYSHIELASKLSSGCDYALFKEGILPMWEDNRNKQGGRWLLSIDKQLRHFELDRLWLETLLCLVGNCFEEYSREVCGAVVNIRTKRDKIALWTSEAEDKAGVMQIGQIYKERLGISTKTIIGYQAHADTAAKSNNLANKFVV
~1.6 rel. to Mm eIF4E	chain 1 KLHPLQYRWVLWFFKNDRSRAWQDNLQLVTKFNTVEDFWAVYSHIKLASNLSSGCDYALFKEGILPMWEDNRNKQGGRWLLSIDKQLRHFELDRLWLETLLCLVGNCFEEYSREVCGAVVNIRTKRDKIALWTSEAEDKAGVMQIGQIYKERLGISTKTIIGYQAHADTAAKSNNLANKFVV
